# B1: NAC: nascent polypeptide-associated complex, heterodimer of αNAC and βNAC; species not given at the place (C. elegans icd-1/icd-2 when overexpressed in worms) (protein)
# chain 1: MTGSTETRQKEVKEPQVDVSDDSDNEAVEQELTEEQRRVAEAAGLGDHIDKQAKQSRSEKKARKLFSKLGLKQVTGVSRVCIRKSKNILFVINKPDVFKSPGSDTYIIFGEAKIEDLTQHAQMSAIENLKPTREAPQLKTVEEDENEDVEEDSTGIEEKDIELVISQANTTRNKAIRALKEADNDIVNAIMSLTM
# chain 2: MMDSKAIAERIKKLQAQQEHVRIGGKGTPRRKKKVIHKTAAADDKKLQSNLKKLSVTNIPGIEEVNMIKDDGTVIHFNNPKVQTSVPANTFSVTGSADNKQITEMLPGILNQLGPESLTHLKKLANNVTKLGPDGKGEDEDVPELVGDFDAASKNETKADEQ
# Experiments:
# AtxQ78 = molecular target: T1, AtxQ78 (Homo sapiens, UniProt P54252, INS305QQQQQQQQQQQQQQQQQQQQQQQQQQQQQQQQQQQQQQQQQQQQQQQQQQQQQQQQQQQQQQQQ); experiment: Chemical crosslinking (BS3) and mass spectrometry of NAC-AtxQ78 complexes; type: binding; settings: NAC and AtxQ78 1:1, BS3 crosslinker, LC-MS
# T1 construct: full-length Ataxin-3 harboring a stretch of 78 glutamines (AtxQ78); made in house
# Experimental: For crosslinking AtxQ78 was buffer exchanged into 10 mM sodium phosphate (pH 7.2) and added to NAC at a 1:1 ratio (20 μM NAC+20 μM AtxQ78). A 1:1 mixture of BS^3-d^0 and BS^3-d^4 was added to the proteins at 20× and 50× molar excess and the reaction allowed to proceed at room temperature for 1 hour before quenching with the addition of 50 mM Tris-Cl (pH 7.5). Samples were diluted with 2× loading buffer and separated on Tris-tricine gels followed by staining with InstantBlue (Expedeon).
# (§1) Gel pieces containing the crosslinked complexes were washed with 25 mM ammonium bicarbonate (pH 7.8) for 1 h with shaking. The solution was removed and the pieces destained three times with 25 mM ammonium bicarbonate in 60% acetonitrile. Gel pieces were dehydrated with 100% acetonitrile for 10 min and left to air-dry in a laminar flowhood for 1 h. Rehydration of the gel pieces was achieved by adding 0.1 mg/ml trypsin solution and incubating the samples on ice for 30 min. Excess trypsin was removed and the samples were incubated at 37° C. and 1000 rpm overnight. Peptides were extracted from the gel using 3 washes with 60% acetonitrile/5% formic acid. The extracts were pooled and concentrated using a SpeedVac before being analyzed using a nanoACQUITY LC-system coupled to a Synapt HDMS G2Si mass spectrometer. […]
# [1] = molecular target: GdmCl-denatured firefly luciferase (Photinus pyralis, UniProt P08659); experiment: Luciferase refolding assay; type: biochemical; settings: denatured luciferase preincubated 1:1 for 15 min at room temperature before adding Hsp70/Hsp40
# FlucDM-EGFP = molecular target: T2, FlucDM-EGFP (Photinus pyralis, UniProt P08659, R188Q/R261Q); experiment: FlucDM-EGFP aggregation after heat-shock in C. elegans; type: in vivo; settings: overexpressed in muscle cells; heat-shock 1 h, 33° C.; 24 h recovery at 20° C.
# T2 construct: expressed in transfected cells; host or cells: C. elegans muscle cells (transgenic strain, unc-54 promoter)
# Experimental: We further investigated NAC activity on luciferase refolding in vivo using a C. elegans strain expressing a structurally destabilized version of luciferase fused to EGFP (FlucDM-EGFP) in muscle cells (Gupta et al., 2011). This protein is soluble at moderate temperature but aggregates upon heat stress. After heat-shock (1 h, 33° C.) of worms, FlucDM-EGFP formed large punctate aggregates which were still evident in control animals after 24 h recovery at 20° C. (FIG. 4B, “ev”). […] Thus, efficient luciferase refolding by NAC depends on N-βNAC, in vitro and in vivo.
# Worms were cultured according to standard techniques with E. coli OP50 as food source (Brenner, 1974). Transgenic strains were generated using standard microinjection protocols (Mello and Fire, 1995). Constructs for overexpression of NAC in body wall muscles were generated by cloning the coding sequences of icd-1 (βNAC) and icd-2 (αNAC) into a vector containing the myo-3 promoter and the unc-54 3′-untranslated region (UTR). The NAC genes were N-terminally tagged with 3×FLAG. Mutant NAC constructs were generated by standard mutagenesis protocols. AM140 (unc-54p::Q35::YFP) and FlucDM-EGFP (unc-54p::luciferase::GFP) worms were injected with 25 ng/μl of each NAC plasmid together with myo-2p::mCherry (2.5 ng/μl) and DNA ladder (100 ng/μl, GeneRuler 1 kb, Thermo Scientific). […]
# Aβ40 = molecular target: T3, Aβ40 (Homo sapiens, UniProt P05067); experiment: Chemical crosslinking (BS3) and mass spectrometry of NAC-Aβ40 complexes; type: binding; settings: NAC and Aβ40 both 18 μM, 37° C. 2 h
# T3 construct: Aβ40 peptide was expressed and purified as described previously; made in house; host or cells: E. coli BL21 (DE3)
# Experimental: Aβ40 (18 μM) was incubated with purified NAC in a 1:1 molar ratio in Aβ aggregation buffer (20 mM sodium phosphate pH 7.5, 0.2 mM EDTA, 0.01% (w/v) NaN3) at 37° C. for 2 h. BS^3-h^12d^12 was added to the proteins at 20× molar excess and incubated for 30 min at 37° C. before quenching with 50 mM NH4HCO3. Crosslinked samples were gel-filtrated using a Superdex 75 column (GE Healthcare) and fractions containing crosslinked Aβ40-NAC complexes subjected to co-immunoprecipitation using Aβ antibody 6E10 (Biozol). Captured proteins were denatured with 1×SDS sample buffer under non-reducing conditions to avoid splitting of the antibody in heavy and light chains.
# as §1, with “Peptides were extracted from the gel using 3 washes with 60% acetonitrile/5% formic acid.” left out
# [2] = tested on: PolyQ35::YFP C. elegans worms; experiment: Paralysis assay; type: in vivo; settings: overexpression; day 6 to 10 of adulthood
# Experimental: To analyze the percentage of paralyzed worms, 100 semi-synchronized (timed egg lay for 5 h) young adult worms of each strain were placed on a plate containing 150 μM 5-fluorodeoxyuridine. Screening of paralyzed worms was started at day 6 of adulthood.
# α-synuclein = α-synuclein (Homo sapiens, UniProt P37840); settings: Martin et al., 2018; cited from earlier work
# GdmCl-denatured firefly luciferase, sequence (P08659 whole entry): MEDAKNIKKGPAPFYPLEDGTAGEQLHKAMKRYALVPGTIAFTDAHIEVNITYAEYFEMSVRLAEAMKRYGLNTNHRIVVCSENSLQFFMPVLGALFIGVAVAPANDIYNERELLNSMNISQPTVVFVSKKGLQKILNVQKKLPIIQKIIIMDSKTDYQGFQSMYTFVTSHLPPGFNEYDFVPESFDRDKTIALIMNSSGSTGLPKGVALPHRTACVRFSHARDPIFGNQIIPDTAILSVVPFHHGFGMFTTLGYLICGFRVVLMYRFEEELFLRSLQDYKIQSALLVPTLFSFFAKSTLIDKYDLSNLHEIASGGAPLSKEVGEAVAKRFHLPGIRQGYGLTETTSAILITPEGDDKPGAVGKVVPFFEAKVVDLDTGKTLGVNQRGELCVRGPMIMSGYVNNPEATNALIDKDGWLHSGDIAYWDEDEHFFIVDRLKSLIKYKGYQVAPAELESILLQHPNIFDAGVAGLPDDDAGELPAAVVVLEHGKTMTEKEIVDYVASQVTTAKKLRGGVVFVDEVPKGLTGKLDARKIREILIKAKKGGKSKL
# T2 sequence (P08659 whole entry R188Q/R261Q): as the sequence (P08659 whole entry) above, with R188Q, R261Q counted along it
# T1 sequence (P54252 with tags, fused parts or gaps with the stated changes): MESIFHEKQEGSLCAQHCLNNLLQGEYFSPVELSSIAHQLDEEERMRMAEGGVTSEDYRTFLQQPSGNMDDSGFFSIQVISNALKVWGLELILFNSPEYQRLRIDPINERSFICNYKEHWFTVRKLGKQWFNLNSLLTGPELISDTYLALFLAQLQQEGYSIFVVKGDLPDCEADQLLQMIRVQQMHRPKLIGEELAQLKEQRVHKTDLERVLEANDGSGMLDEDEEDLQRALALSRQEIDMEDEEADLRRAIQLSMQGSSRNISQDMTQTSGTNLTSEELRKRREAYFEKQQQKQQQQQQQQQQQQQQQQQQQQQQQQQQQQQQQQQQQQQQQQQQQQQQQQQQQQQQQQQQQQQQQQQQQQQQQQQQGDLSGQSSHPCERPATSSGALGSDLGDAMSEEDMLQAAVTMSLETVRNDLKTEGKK
molecule,measurement,setting,value
B1,NAC regions crosslinked to AtxQ78,AtxQ78,predominantly crosslinked to AtxQ78 via the N-terminal regions of αNAC and βNAC
same,luciferase refolding by the Hsp70/Hsp40 system,[1],strongly enhanced over levels of just Hsp70/Hsp40 refolding
same,FlucDM-EGFP aggregates after heat-shock and recovery,FlucDM-EGFP,fully revert back to diffuse GFP signal
same,interaction with Aβ40 (crosslinking-MS),Aβ40,interaction of Aβ40 with the N-terminal domains of NAC
same,motility / age-associated paralysis of PolyQ35::YFP-expressing worms,[2],significantly improves motility
same,aggregation of α-synuclein,α-synuclein,suppresses aggregation
